In patent US12012599B2, “Compositions and methods for modulating left-right differentiation factor (LEFTY) and bone morphogenic factor (BMP)” (CZ Biohub SF LLC, priority 2018, dated 2024):
Read-outs that look alike come from different tables or passages of the source.

B1: BMP7: bone morphogenetic protein 7, BMPR2 ligand (protein)
chain: STGSKQRSQNRSKTPKNQEALRMANVAENSSSDQRQACKKHELYVSFRDLGWQDWIIAPEGYAAYYCEGECAFPLNSYMNATNHAIVQTLVHFINPETVPKPCCAPTQLNAISVLYFDDSSNVILKKYRNMVVRACGCH
B2: LEFTY1: left-right determination factor 1, secreted TGF-β superfamily protein; generic LEFTY may mean LEFTY1 or LEFTY2 (protein, UniProt O75610 77-366, looked up)
Left-right determination …: RFSQSFREVAGRFLALEASTHLLVFGMEQRLPPNSELVQAVLRLFQEPVPKAALHRHGRLSPRSARARVTVEWLRVRDDGSNRTSLIDSRLVSVHESGWKAFDVTEAVNFWQQLSRPRQPLLLQVSVQREHLGPLASGAHKLVRFASQGAPAGLGEPQLELHTLDLGDYGAQGDCDPEAPMTEGTRCCRQEMYIDLQGMKWAENWVLEPPGFLAYECVGTCRQPPEALAFKWPFLGPRQCIASETDSLPMIVSIKEGGRTRPQVVSLPNMRVQKCSCASDGALVPRRLQP

Columns and labels:
mammary gland = assay: Mammary branching after injection of LEFTY1- or BMP7-secreting L1 fibroblasts into mammary fat-pad; assay type: in vivo, mouse; settings: secreted ligand from transplanted fibroblasts; whole mount staining
Protocol: FIGS. 2A-2F. Effect of LEFTY1 and BMP7 in mammary glands. […] Ducts and terminal end buds (TEB) were analyzed for BMP7 positive cells. SMA and DAPI were used to identify basal cells and for nuclear counterstain, respectively (Magnification 200×). […] Ducts and terminal end buds (TEB) were analyzed for LEFTY1 positive cells. SMA and DAPI were used to identify basal cells and for nuclear counterstain, respectively (Magnification 200×). […] Four to seven images per mouse were analyzed for quantification. […] Four to seven images per mice were analyzed for quantification. […] Data are represented as median±S.E.M. Statistical analysis, Student's T-test, *p<0.05; ***p<0.001.
FIGS. 3A-3C. Effects of LEFTY1 and BMP7 on the morphology of the mouse mammary gland. […] Four to seven images per mouse were analyzed for quantification. […] Four to seven images per mouse were analyzed for quantification. Data are represented as median±S.E.M. Statistical analysis, Student's T-test, *p<0.05; **p<0.01; ****p<0.0001.
We first developed a system where transplantation of engineered non-autologous mammary fibroblast cells secreted particular ligands (FIG. 2C). […] These opposing results were unexpected, since both LEFTY1 and BMP7 have been described to have similar suppressive roles on NODAL/SMAD2/3 signaling (Chen et al., Current biology: CB 14, 618-624 (2004) and Yeo et al., Molecular cell 7, 949-957 (2001)).

mammary epithelial cells = assay: 3D organotypic mammary organoid formation; assay type: cell-based, mouse; settings: Wnt-dependent organoid culture
Protocol: FIGS. 8A-8D. Autocrine and paracrine effects of NODAL and LEFTY1 in mammary epithelial cell populations. […] The sorted cells were grown in the 3D organotypic assays to test their organoid formation potential in the presence of NODAL. […] Each dot represents an organoid (n=3). […] Data are represented as median±S.D. Statistical analysis, One-way ANOVA with Dunnet's adjustment, **p<0.01.
FIGS. 9A-9F. Opposing effects of LEFTY1 and BMP7 in mammary organoid formation. […] Data are represented as median±S.D. Statistical analysis, one-way ANOVA with Dunnet's adjustment, *p<0.05; **p<0.01; ***p<0.001.
Since LEFTY1 and BMP7 were able to affect the branching of mammary glands, we hypothesized that the LEFTY1/BMP7 signaling axis may affect the proliferation of mammary epithelial cells. We exposed freshly dissociated mammary epithelial cells to NODAL, LEFTY1, BMP7 and CRIPTO-1 in a modified Wnt-dependent in vitro organoid culture system that was optimized for progenitor cell propagation (Zeng & Nusse, Cell Stem Cell 6, 568-577 (2010) and Jamieson et al., Development 144, 1065-1071 (2017)). In Xenopus, Wnt signaling controls the expression of Nodal and Cripto-1 during gastrulation. Consistent with the evolutionary conservation of the interaction between the Nodal and Wnt pathways (Branford et al., Curr Biol 12, 2136-2141 (2002)), NODAL had no effect on organoid formation in our Wnt-driven culture system (FIG. 8A).
In organoid cultures, the basal cells give rise to mixed phenotype colonies of luminal and basal cells. To prevent the formation of LEFTY1-expressing cells during organoid formation, genetic knockdown of LEFTY1 was done. To knock-down mouse LEFTY1, pSICO-R lentiviral vector was used (Ventura, PNAS, 2004). Different shRNAs were designed and cloned into pSICO-R. The target sequences of the shRNAs cloned were GGACAAGGCTGATGTGGAA (SEQ ID NO: 14) and GCAGGTTCCTGGTGTCAGA (SEQ ID NO: 15). The efficiency of knock-down was tested by transfecting HEK293T cells with pSICO-R-shLEFTY1 constructs with pEGFP-C3-LEFTY1 at 1:4 and 1:20 ratio. Decrease on GFP signal was used to calculate the percentage of inhibition of the shLEFTY sequences. […] (p<0.001 and p<0.01, respectively) (FIGS. 8C-8D and FIGS. 9E-9F).

BMPR2 = assay: In situ target-mediated (proximity) ligation assay, BMPR2; assay type: binding
From the text: FIGS. 5A-5H. LEFTY1 inhibits pSMAD2 and pSMAD5 in the basal mammary epithelial cells. […] KRT8 was used to stain the luminal cells and SMA for basal cells (Magnification 400×). […] Gapdh was used as a housekeeping gene. […] Ten different fields were counted per condition (n=3). Data are represented as median±S.D. Statistical analysis, (a and b) Student's T-test, * p<0.05; (h) One-way ANOVA with Dunnet's adjustment, ****p<0.0001.
FIGS. 5I-5J: LEFTY1 preferentially interacts with BMPR2. […] BMP7-BMPR2 interaction was used as a positive control, and mouse and rabbit IgGs were used as technical negative controls. The interaction of LEFTY with Wnt receptor LRP6 was analyzed as a biological negative control. […] Data are represented as median±S.D. Statistical analysis, one-way ANOVA post-hoc Tukey multiple comparison, ****p<0.0001, ***p<0.001; unless stated analysis is non-significant with p>0.05.
Since BMPR2 is upstream of pSMAD1/5/8, we reasoned that BMPR2 could serve as a common BMP Type II receptor that mediates the BMP7/LEFTY1 axis. […] The interaction between BMP7 and BMPR2 was used as a positive control (p<0.0001) (FIG. 5G-5H and FIG. 7B).
Next, we assessed the interaction of LEFTY with different type I and type II TGF-β receptors. […] We also analyzed the interaction of LEFTY with Wnt receptor LRP6 as a biological negative control. […]

Row | Molecule | extent and number of mammary tree branches (mammary gland) | organoid formation (frequency, number of colonies) (mammary epithelial cells) | organoid size (mammary epithelial cells) | protein interaction with BMPR2 (BMPR2) | protein interaction with BMPR2 (BMPR2; listed as LEFTY)
1 | B1 | decreased | significantly decreased | significantly decreased | – | –
2 | B2 | significant localized increase | increased the number of colonies | – | significant protein interaction | interacted preferentially
